Data as given in paper PMC4336473, “Role of L-alanine for redox self-sufficient amination of alcohols” (Microbial Cell Factories, 2015).

Tests used:
[1] = substrate: C[C@H](N)C(=O)O; test: HPLC of hexylamine formation, crude extract; assay type: biochemical, Vibrio fluvialis; settings: 10 mM hexanal as acceptor, potassium phosphate pH 7.4 (50 mM in results, 100 mM in methods), 37°C
Text: HPLC of hexylamine formation, crude extract on TaVf (transaminase from Vibrio fluvialis)

[2] = substrate: C[C@H](N)C(=O)O; test: HPLC of hexylamine formation, crude extract; assay type: biochemical, Chromobacterium violaceum; settings: 10 mM hexanal as acceptor, potassium phosphate pH 7.4 (50 mM in results, 100 mM in methods), 37°C
Text: HPLC of hexylamine formation, crude extract on TaCv (transaminase from Chromobacterium violaceum)

B1: TaVf (transaminase from Vibrio fluvialis) (Vibrio fluvialis) (protein)
chain: MNKPQSWEARAETYSLYGFTDMPSLHQRGTVVVTHGEGPYIVDVNGRRYLDANSGLWNMVAGFDHKGLIDAAKAQYERFPGYHAFFGRMSDQTVMLSEKLVEVSPFDSGRVFYTNSGSEANDTMVKMLWFLHAAEGKPQKRKILTRWNAYHGVTAVSASMTGKPYNSVFGLPLPGFVHLTCPHYWRYGEEGETEEQFVARLARELEETIQREGADTIAGFFAEPVMGAGGVIPPAKGYFQAILPILRKYDIPVISDEVICGFGRTGNTWGCVTYDFTPDAIISSKNLTAGFFPMGAVILGPELSKRLETAIEAIEEFPHGFTASGHPVGCAIALKAIDVVMNEGLAENVRRLAPRFEERLKHIAERPNIGEYRGIGFMWALEAVKDKASKTPFDGNLSVSERIANTCTDLGLICRPLGQSVVLCPPFILTEAQMDEMFDKLEKALDKVFAEVA
notes: full length, untagged by primers (pTrc99A-taVf), E. coli W3110 crude extract
Km [1]: 20.00 ± 1.10 mM | Vmax [1]: 0.3 µmol/min/mg

B2: TaCv (transaminase from Chromobacterium violaceum) (Chromobacterium violaceum ATCC 12472) (protein)
chain: MQKQRTTSQWRELDAAHHLHPFTDTASLNQAGARVMTRGEGVYLWDSEGNKIIDGMAGLWCVNVGYGRKDFAEAARRQMEELPFYNTFFKTTHPAVVELSSLLAEVTPAGFDRVFYTNSGSESVDTMIRMVRRYWDVQGKPEKKTLIGRWNGYHGSTIGGASLGGMKYMHEQGDLPIPGMAHIEQPWWYKHGKDMTPDEFGVVAARWLEEKILEIGADKVAAFVGEPIQGAGGVIVPPATYWPEIERICRKYDVLLVADEVICGFGRTGEWFGHQHFGFQPDLFTAAKGLSSGYLPIGAVFVGKRVAEGLIAGGDFNHGFTYSGHPVCAAVAHANVAALRDEGIVQRVKDDIGPYMQKRWRETFSRFEHVDDVRGVGMVQAFTLVKNKAKRELFPDFGEIGTLCRDIFFRNNLIMRACGDHIVSAPPLVMTRAEVDEMLAVAERCLEEFEQTLKARGLA
notes: full length, codon-optimized, untagged by primers (pTrc99A-taCv), E. coli W3110 crude extract
Km [2]: 35.00 ± 2.20 mM | Vmax [2]: 2 µmol/min/mg
